Source: patent publication US10881612B2, “Cationic liposomes for cancer immunotherapy” (The Methodist Hospital, priority 2015, dated 2021)

Experiments:
4T1 tumors [1] = assay: In vivo tumor cytotoxicity (H&E and TUNEL staining) after intratumoral injection; details: 24 hours after intratumoral injection
Procedure: (§1) The cytotoxicity of cationic liposomes to 4T1 breast cancer cells was evaluated by flow cytometry using propodium iodide (PI). Using a 24 well plate format, cells were treated with 4 μg control or MPL liposomes, or free MPL (250 ng) for 24 hours. Cells were released using trypsin and treated with PI according to manufacturer's protocol (Invitrogen). Samples were analyzed using a LSR II™ Flow Cytometer (BD Biosciences, Mountain View, Calif., USA) equipped with […] ™ software (2007). In vivo tumor cytotoxicity of cationic liposomes was evaluated in BALB/c mice bearing 200 mm^3 4T1 tumors 24 hours following intratumoral injection of liposomes (50 μL; 1 mg lipid). […]
(§2) The cytotoxicity of cationic liposomes to 4T1 breast cancer cells was evaluated by flow cytometry using propidium iodide (PI). […] Samples were analyzed using a LSR II® Flow Cytometer (BD Biosciences. Mountain View, Calif., USA) equipped with […] ™ software (2007). In vivo tumor cytotoxicity of cationic liposomes was evaluated in BALB/c mice bearing 200 mm^3 4T1 tumors 24 hr following intratumoral injection of liposomes (50 μL; 1 mg lipid). Excised tumors were embedded in paraffin, sectioned, and stained with hematoxylin/eosin, or analyzed for apoptosis using the DeadEnd® Fluorometric TUNEL System (Promega Corp., Madison. Wis., USA).

[2] = system: 4T1 orthotopic breast tumors; assay: Therapeutic efficacy study, intratumoral injection; format: in vivo, BALB/c mice; details: intratumoral injection once a week for two weeks
Procedure: Breast cancer tumors were established in BALB/c mice by intramammary injection of 1×10^5 4T1-luciferase cells. When tumors reached a median size of 100-200 mm^3, mice were administered intratumoral injections as follows: PBS control, Free MPL (6.25 μg), control liposomes (50 μL; 1 mg lipid); MPL liposomes (50 μL), and IL-12 (5 μg) with/without MPL liposomes. Tumor growth was monitored by caliper measurements three times per week and by luciferase expression measured weekly using the Xenogen IVIS-200 System (Perkin Elmer Inc., Waltham, Mass., USA) following intra-peritoneal injection of 75 mg/kg RediJect D-Luciferin (Perkin Elmer Inc.), 24-26 days after initiation of tumor growth, mice were sacrificed, blood was collected by retro-orbital bleeding, and tumor and spleen were collected for immunohistochemical, weight, and size analysis. Dual tumors were grown in naïve mice using the same experimental conditions with intratumoral injection of particles limited to a single tumor.
Breast cancer tumors were established in BALB/c mice by intramammary injection of 1×10^5 4T1-luciferase cells. When tumors reached a median size of 100-200 mm^3, mice were administered intratumoral injections as follows: PBS control. Free MPL (6.25 μg), control liposomes (50 μL; 1 mg lipid): MPL liposomes (50 μL), and IL-12 (5 μg) with/without MPL liposomes. […]

4T1 breast cancer cells = assay: Cytotoxicity of cationic liposomes by propidium iodide flow cytometry; format: cell-based, mouse; details: 4T1 cells, 4 μg/mL liposomes or free MPL (250 ng), 24 hours, n=3
Procedure: as §1, §2

4T1 tumor [3] = assay: Immune phenotyping of tumor immunocytes by flow; format: in vivo, murine; details: 24 hours after treatment, preliminary
serum cytokines = assay: Multiplex bead ELISA of serum cytokines; format: in vivo, BALB/c mice; details: 5 hours after intratumoral injection
Procedure: Serum cytokines were analyzed 5 hours after intratumoral injection of liposomes using a mouse cytokine magnetic 10-plex panel kit (Invitrogen, Carlsbad, Calif., USA) for the Luminex® platform. Following retro-orbital eye bleed, plasma was collected by centrifugation at 1500 g for 10 minutes at 4° C. and stored at −80° C. Plates were prepared using 25 μL/well of the antibody-bound head. After 2 washes, 50 μL serum and 50 μL assay diluent (or 100 μL standard) were added and plates were incubated at room temperature for 2 hours on an orbital shaker. After two washes, 100 μL of biotinylated detector antibody was added to the heads and they were incubated for an additional hour, followed by two more washes and the addition of 100 μL streptavidin-RPE for 30 minutes. After a final two washes, beads were suspended in 125 μL wash solution and inserted into the XY platform of a Luminex MAGPIX Instrument (EMD Millipore, Billerica, Mass. USA). The assay protocol was designed using xPONENT software and samples were run at 100 events/bead region.
Multiplex Bead ELISA. Serum cytokines were analyzed 5 hr after intratumoral injection of liposomes using a mouse cytokine magnetic 10-plex panel kit (Invitrogen, Carlsbad, Calif. USA) for the Luminex® platform. Following retro-orbital eye bleed, plasma was collected by centrifugation at 1500×g for 10 min at 4° C. and stored at −80° C. […]

4T1 tumors [4] = assay: Immunofluorescence of tumor sections (cellular phenotype of tumor microenvironment); format: in vivo, BALB/c mice
Procedure: Tissues were quick frozen in OCT (Tissue-Tek) and stored at −80° C. Tissue sections (10 μm) were fixed with ice-cold acetone for 15 minutes at −20° C. and washed three times with IX PBS using trays followed by blocking with 5% fetal bovine serum in PBS. Fluorescence-labeled antibodies [e-flour 615 CD8 (clone 53-6.7; 1:50), e-flour 570 Ki-67 (clone solA15: 1:100; eBioscience, San Diego, Calif., USA); FITC F4/80 (MCA497A488; 1:100), Alexa Fluor 647 CD204 (MCA1322; 1:100, AbD Serotec, Raleigh N.C., USA); and 33D1 (1:100, BD Biosciences, San Jose. Calif.: 1:500 secondary anti-rat IgG Alexa Fluor® 546; Invitrogen) and iNOS (6/iNOS/NOS; 1:100 BD Biosciences, San Jose, Calif., USA; 1:500 anti-rabbit IgG-TRITC, Jackson Immunoresearch Labs, Inc. West Grove, Pa., USA)] were incubated with tissues overnight at 4° C. in the presence of 5% FBS. Slides were then washed three times with PBS and mounted with ProLong® Gold AntiFade with DAPI (Invitrogen). Images were taken using an A1 Nikon confocal microscope and the percent positive cells were determined by manual counting of four arbitrary regions in random samples.
Tissues were quick frozen in OCT (Tissue-Tek) and stored at −80° C. Tissue sections (10 μm) were fixed with ice-cold acetone for 15 min at −20° C. and washed three times with 1×PBS using trays followed by blocking with 5% fetal bovine serum in PBS. Fluorescently-labeled antibodies [eFluor® 615 CD8 (clone 53-6.7; 1:50), eFluor® 570 Ki-67 (clone solA15; 1:100; eBioscience, San Diego, Calif. USA); FITC F4/80 (MCA497A488; 1:100), Alexa-Fluor® 647 CD204 (MCA1322; 1:100, AbD Serotec, Raleigh N.C. USA); and 33D1 (1:100, BD Biosciences, San Jose, Calif.; 1:500 secondary anti-rat IgG Alexa-Fluor® 546: Invitrogen) and iNOS (6/iNOS/NOS; 1:100 BD Biosciences. San Jose. Calif., USA; 1:500 anti-rabbit IgG-TRITC. Jackson ImmunoResearch Laboratories. Inc., West Grove, Pa. USA)] were incubated with tissues overnight at 4° C. in the presence of 5% FBS. Slides were then washed three times with PBS and mounted with ProLong® Gold AntiFade® with DAPI (Invitrogen). Images were obtained using a confocal microscope (A1 Nikon), and the percent-positive cells were determined by manual counting of four arbitrary regions in random samples.

4T1 tumor [5] = assay: V-sense 19F MRI / confocal tracking of macrophage infiltration into tumor; format: in vivo, mice; details: after IL-12 intratumoral injection, tumors extracted 24 hours post imaging
Description: Macrophage accumulation has been documented to contribute to cancer progression through suppression of the immune response and promotion of tumor vascularization (Mielgo et al., 2013). V-sense is a perfluorocarbon emulsion that is taken up by monocytes and macrophages, allowing for in-vivo detection through ^19F MRI. Ahrens, et al. (2011) successfully quantified V-sense in inflamed tissues of the central nervous system in an ex-vivo model of allergic encephalomyelitis, which they correlated with immunohistochemistry to confirm co-localization of V-sense emulsion droplets and macrophages. Hitchens et al. (2011) detected perfluorocarbon-labeled macrophages in a model of cardiac allograft rejection, which was confirmed via immunohistochemistry and histology. V-sense was used to study the impact of IL-12 on macrophage infiltration into the tumor (FIG. 8). […] Confocal images in FIG. 8B show V-sense (red) uptake by Celltracker™ Green RAW cells.

Molecule	cell death in tumor (TUNEL staining) (4T1 tumors [1])	tumor growth (caliper measurements) [2]	cell death (propidium iodide uptake) (4T1 breast cancer cells) [%]	CD4+ T cells in the tumor (4T1 tumor [3])	CD8+ T cells in the tumor (4T1 tumor [3])	MDSC in the tumor (4T1 tumor [3])	serum IFN-γ (serum cytokines)	CD8+ (cytolytic) T cells in the tumor (change) (4T1 tumors [4]; mouse, in vivo)	F4/80+ macrophages in the tumor (change) (4T1 tumors [4]; mouse, in vivo)	iNOS in tumors (change) (4T1 tumors [4]; mouse, in vivo)	increase in iNOS (nitric oxide synthase) expression in the tumor above basal levels (4T1 tumors [4]; mouse, in vivo) [fold]	33D1+ dendritic cells in the tumor (change) (4T1 tumors [4]; tumor sections, immunofluorescence)	V-sense signal distribution in tumor (macrophage infiltration) (4T1 tumor [5])
monophosphoryl lipid A [free MPL]	Minimal cell death	did not slow tumor growth	16										
IL-12: Recombinant mouse IL-12 purchased from R&D Systems (protein, UniProt P43431 23-215; P43432 23-335, looked up) Interleukin-12 subunit alpha: RVIPVSGPARCLSQSRNLLKTTDDMVKTAREKLKHYSCTAEDIDHEDITRDQTSTLKTCLPLELHKNESCLATRETSSTTRGSCLPPQKTSLMMTLCLGSIYEDLKMYQTEFQAINAALQNHNHQQIILDKGMLVAIDELMQSLNHNGETLRQKPPVGEADPYRVKMKLCILLHAFSTRVVTINRVMGYLSSA Interleukin-12 subunit beta: MWELEKDVYVVEVDWTPDAPGETVNLTCDTPEEDDITWTSDQRHGVIGSGKTLTITVKEFLDAGQYTCHKGGETLSHSHLLLHKKENGIWSTEILKNFKNKTFLKCEAPNYSGRFTCSWLVQRNMDLKFNIKSSSSSPDSRAVTCGMASLSAEKVTLDQRDYEKYSVSCQEDVTCPTAEETLPIELALEARQQNKYENYSTSFFIRDIIKPDPPKNLQMKPLKNSQVEVSWEYPDSWSTPHSYFSLKFFVRIQRKKEKMKETEEGCNQKGAFLVEKTSTEVQCKGGNVCVQAQDRYYNSSCSKWACVPCRVRS				increases	increases	decreases	increase	increased	increased	enhancing production	3	increased	strong penetration of V-sense signal into tumor tissue
